From patent publication US20160264664A1 (Ablynx, published 2016) come the findings set out here.

Residue numbers refer to the chain shown, from its start.

The target of experiment [1] is T1, mouse P2X7 (mouse, UniProt Q9Z1M0 1-595).
T1 sequence: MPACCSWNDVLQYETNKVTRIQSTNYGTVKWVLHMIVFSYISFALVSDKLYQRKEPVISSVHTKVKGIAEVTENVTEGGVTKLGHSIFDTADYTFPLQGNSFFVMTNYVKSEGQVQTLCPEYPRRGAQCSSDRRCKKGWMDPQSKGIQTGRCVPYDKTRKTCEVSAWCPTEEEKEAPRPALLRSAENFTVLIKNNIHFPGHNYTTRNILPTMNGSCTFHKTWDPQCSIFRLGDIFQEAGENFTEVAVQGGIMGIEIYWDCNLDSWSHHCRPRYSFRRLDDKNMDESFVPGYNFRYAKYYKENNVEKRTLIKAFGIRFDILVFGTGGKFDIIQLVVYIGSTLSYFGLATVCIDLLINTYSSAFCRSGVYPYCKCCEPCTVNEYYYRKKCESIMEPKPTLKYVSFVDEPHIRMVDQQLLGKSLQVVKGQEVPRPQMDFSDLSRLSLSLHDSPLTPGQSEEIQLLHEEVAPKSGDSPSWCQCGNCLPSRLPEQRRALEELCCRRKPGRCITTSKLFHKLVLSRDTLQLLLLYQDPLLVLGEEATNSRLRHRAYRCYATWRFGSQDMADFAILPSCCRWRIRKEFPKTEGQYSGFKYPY
Nature of the experiment: cell-based or functional assay.

For a further experiment, the target named is T2, human P2X7 (human, UniProt Q99572 1-595).
T2 construct: on transfected Hek293 cells; also called hP2X7
T2 sequence: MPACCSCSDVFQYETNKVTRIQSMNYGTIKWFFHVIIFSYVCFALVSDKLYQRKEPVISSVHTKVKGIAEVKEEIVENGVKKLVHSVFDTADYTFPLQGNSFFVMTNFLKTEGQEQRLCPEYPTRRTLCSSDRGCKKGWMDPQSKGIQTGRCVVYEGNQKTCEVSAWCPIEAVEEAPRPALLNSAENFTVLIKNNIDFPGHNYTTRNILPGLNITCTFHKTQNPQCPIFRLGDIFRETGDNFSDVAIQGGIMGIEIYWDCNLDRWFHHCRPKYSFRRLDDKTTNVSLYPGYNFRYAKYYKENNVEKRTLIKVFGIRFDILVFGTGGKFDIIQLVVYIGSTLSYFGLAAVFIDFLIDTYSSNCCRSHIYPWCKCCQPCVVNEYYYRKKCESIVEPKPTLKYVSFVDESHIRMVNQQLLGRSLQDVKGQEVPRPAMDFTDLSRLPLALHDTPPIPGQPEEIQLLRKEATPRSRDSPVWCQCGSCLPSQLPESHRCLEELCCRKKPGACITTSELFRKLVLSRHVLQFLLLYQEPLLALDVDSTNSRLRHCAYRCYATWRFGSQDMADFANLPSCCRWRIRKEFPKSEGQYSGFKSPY
Nature of the experiment: flow cytometry, Nanobody pre-incubated with anti-Myc-FITC. Background: Flow cytometry measures light scatter and fluorescence of single cells or particles in a stream.

In a further experiment the target is T3, human P2X4 (human, UniProt Q99571 1-388).
T3 construct: whole, on cells; also called hP2X4
T3 sequence (looked up): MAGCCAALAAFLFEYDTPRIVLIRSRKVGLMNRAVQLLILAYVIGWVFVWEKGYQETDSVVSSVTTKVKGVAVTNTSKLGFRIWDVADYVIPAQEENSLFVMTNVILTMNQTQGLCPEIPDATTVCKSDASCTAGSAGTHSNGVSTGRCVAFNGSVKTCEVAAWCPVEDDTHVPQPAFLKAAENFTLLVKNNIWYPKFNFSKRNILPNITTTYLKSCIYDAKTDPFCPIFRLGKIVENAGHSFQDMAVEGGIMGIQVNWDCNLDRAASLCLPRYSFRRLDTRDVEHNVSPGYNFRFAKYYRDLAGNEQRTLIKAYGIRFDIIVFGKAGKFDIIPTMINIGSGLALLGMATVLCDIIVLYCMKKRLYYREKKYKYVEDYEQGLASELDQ
The description is as above.

Experiment [2] has as its target T1, mouse P2X7. The experiment can be described thus: phage ELISA on fixed mP2X7-CHO vs untransfected CHO cells.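 Further: phage culture supernatant diluted 10-fold, applied for 1 h to paraformaldehyde-fixed, BSA-blocked cells in 96-well plates, with bound phage read via HRP-linked anti-M13 antibody.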
Protocol: (§1) Sub-confluent cells were rinsed with PBS and fixed using 4% paraformaldehyde in PBS for 10 minutes at RT. Fixed cells were washed three times with PBS, and blocked with 2% BSA in PBS for 2 hours. Following blocking, 10-fold diluted culture supernatant containing phage was added and incubated for 1 hour. Cell-bound phage was detected via mouse anti-M13-HRP-conjugate (GE Healthcare, Cat nr. E2886). Rat mAb Hano43 was used as positive control.
In experiment [3] the target is T1, mouse P2X7. The experiment can be described thus: phage ELISA, mP2X7-CHO vs control CHO cells.
Protocol: as §1

B1: P2X7PMP13G9 (VHH)
VHH: EVQLVESGGGLVQAGGSLRLSCVASGRTFSILTMGWFRQAPGKEREFVAAISGIGAIHYADSVKGRFTLSRDNARNTVSLHMNSLKPEDTAVYYCAAKANYESPSRETSYAYWGQGTQVTVSS
notes: family 23; on phage or c-myc/His6-tagged in assays
B1: in the experiment with mouse P2X7 [1], the “ATP IC50 by 2 uM NB (head prints 'mM'; ligand titration at fixed Nanobody, CD62L shedding, Yac-1 cells)” value (“ATP IC50 by 2 uM NB” for short) is 0.469 mM; the “IC50 (nM) against 20 uM NAD (CD62L shedding, Yac-1 cells)” value (“IC50 (nM) against 20 uM NAD” below) is 136 nM; the “IC50 (nM) against 100 uM ATP (CD62L shedding, Yac-1 cells)” value (“IC50 (nM) against 100 uM ATP” below) was found to be 35 nM. The binding result with human P2X7 was “no binding (tested: 147 nM)”. For the same molecule, the binding result with human P2X4 is listed as “no binding (tested: 147 nM)”. In addition, the “Fold Cho P2X7/wt (phage ELISA)” value with mouse P2X7 [2] is 17 fold.

B2: P2X7PMP13B5 (VHH)
VHH: EVQLVESGGGLVQAGDSLRLSCAASGRTFSSYAMGWFRQAPGKEREFVAAISLSGSMTYYADSMKGRFTISRDNAKNTVYLQMNSLKPEDTAVYYCAAEELGDGLGYLAYRYDYWGQGTQVTVSS
notes: family 19; on phage or c-myc/His6-tagged in assays
With B2, in the experiment with mouse P2X7 [1], the “ATP IC50 by 2 uM NB” value turned out to be 0.2 mM; the “IC50 (nM) against 20 uM NAD” value is 3650 nM; the “IC50 (nM) against 100 uM ATP” value was 436 nM. Besides, the binding result in the experiment with human P2X7 is “no binding (tested: 147 nM)”. The binding result with human P2X4 is on record as “no binding (tested: 147 nM)”. In addition, the “Fold Cho P2X7/wt (phage ELISA)” value with mouse P2X7 [2] stood at 28 fold.

B3: P2X7PMP8C7 (VHH)
VHH: EMQLVESGGGLVQAGGSLRLSCAASGRTFSSLAMGWLRQAPGKEREFVSGISRGGTSTYYADSVKGRFTISRDNAKNTMYLQMNSLKPEDTAVYYCAGSPVLSIVLDTRGLEYWGQGTQVTVSS
notes: family 7; on phage or c-myc/His6-tagged in assays
In the case of B3, in the experiment with mouse P2X7 [1], the “IC50 (nM) against 20 uM NAD” value is 4000 nM and the “IC50 (nM) against 100 uM ATP” value was determined as 386 nM. Also, in the experiment with human P2X7, the binding result is recorded as “no binding (tested: 147 nM)”. Further, the binding result with human P2X4 is “no binding (tested: 147 nM)”. For the same molecule, in the experiment with mouse P2X7 [2], the “Fold Cho P2X7/wt (phage ELISA)” value was determined as 21 fold.

B4: P2X7PMP8E7 (VHH)
VHH: B3 VHH with M2V
notes: as for B3
B4: in the experiment with mouse P2X7 [1], the “IC50 (nM) against 20 uM NAD” value was 4000 nM and the “IC50 (nM) against 100 uM ATP” value was 576 nM. In addition, in the experiment with human P2X7, the binding result was “no binding (tested: 147 nM)”. For the same molecule, the binding result in the experiment with human P2X4 is listed as “no binding (tested: 147 nM)”. In the experiment with mouse P2X7 [2], the “Fold Cho P2X7/wt (phage ELISA)” value was 16 fold.

B5: P2X7PMP14F6 (VHH)
VHH: EVQLVESGGGLVQAGGPLRLSCAASGSFFRVNNMAWYRQAPGKQRELVADITRGDRTNYADSVNGRFTISRDNVRNTVYLQMNGLKPEDTAVYYCYARIELGVLEPRDYWGQGTQVTVSS
notes: family 5, 2; on phage or c-myc/His6-tagged in assays
B5: the “absorption ratio (ELISA)” value with mouse P2X7 [3] came to 15 ratio.

B6: P2X7PMP14G4 (VHH)
VHH: B5 VHH with P17S, R19G, S27N, N33T, S62T, V92A
notes: as for B5
B6: the “absorption ratio (ELISA)” value with mouse P2X7 [3] is 34 ratio.

B7: P2X7PMP14F10 (VHH)
VHH: B5 VHH with P17S, S21L, Y94S, V103I
notes: as for B5
As for B7, the “absorption ratio (ELISA)” value with mouse P2X7 [3] amounted to 19 ratio.

B8: P2X7PMP14G11 (VHH)
VHH: B5 VHH with Q13K, A14P, P17S, A40G, R98T
notes: family 5, 3; on phage or c-myc/His6-tagged in assays
Turning to B8, the “absorption ratio (ELISA)” value with mouse P2X7 [3] worked out at 30 ratio.

B9: P2X7PMP7D6 (VHH)
VHH: EVQLVESGGGLVQAGGSLRLSCAASGRTFGSSPVGWFRQAPGKERDFVATISWNGVDTHYLDSVKGRFTISRDNAKNTVHLQMHILKPEDTALYYCAASTSGSVYLPYRVYQYDSWGQGTQVTVSS
notes: family 8; on phage or c-myc/His6-tagged in assays
In the case of B9, the binding result with human P2X7 and in the experiment with human P2X4 was “no binding (tested: 147 nM)” throughout. The “Fold Cho P2X7/wt (phage ELISA)” value with mouse P2X7 [2] is 18 fold.

B10: P2X7PMP7B4 (VHH)
VHH: EVQLVESGGGLVQAGGSLRLSCAASGRNFGSYTMAWFRQAPGKGREFVSTINWSGGDTDYADSVKGRFTISRDNAKNTVYLQMDSLKPEDTAVYYCAAGLEYMSTIRYTYEYWGQGTQVTVSS
notes: family 10; on phage or c-myc/His6-tagged in assays
Regarding B10, the binding result with human P2X7 and with human P2X4 was “no binding (tested: 147 nM)” in each case. The “Fold Cho P2X7/wt (phage ELISA)” value in the experiment with mouse P2X7 [2] stood at 23 fold.

B11: P2X7PMP7A4 (VHH)
VHH: EVQLVESGGGLVQAGGSLRVSCAASARTGSYSMGWFRQAPGKEREFVSTISWNGADTVYADSVKGRFTISRDNAKDTVYLQMNSLKPEDTAVYYCAGSITSYVSTWQHDYEYWGQGTQVTVSS
notes: family 9; on phage or c-myc/His6-tagged in assays
Turning to B11, the binding result with human P2X7 and with human P2X4 was “no binding (tested: 147 nM)” each time. Besides, the “Fold Cho P2X7/wt (phage ELISA)” value with mouse P2X7 [2] was 32 fold.

B12: P2X7PMP7G5 (VHH)
VHH: EVQLVESGGGLVQSGGSLRLSCAGSGFSYYIIGWFRQAPGKEREEVSCIRVTDGSTYYTNSVKGRFTMSRDNAENTVYLQMNSLKPEDTAVYSCATECQRWAYPNRIGARGQGTQVTVSS
notes: family 12; on phage or c-myc/His6-tagged in assays
Turning to B12, the binding result in the experiment with human P2X7 and with human P2X4 was “no binding (tested: 147 nM)” throughout. The “Fold Cho P2X7/wt (phage ELISA)” value in the experiment with mouse P2X7 [2] came to 30 fold.

B13: P2X7PMP2A6 (VHH)
VHH: EVQLVESGGDVVQAGGSLRLSCLASGFTFDDYAIGWFRQAPGKEREGISCISSTGNVFYADSVKGRFTISSDKEKNTLYLQMNSLEPEDTAVYHCAAGHFTVDSGKVLLRTDISSWGQGTQVTVSS
notes: family 1; on phage or c-myc/His6-tagged in assays
Regarding B13, the binding result with human P2X7 and in the experiment with human P2X4 was “no binding (tested: 147 nM)” each time. In the experiment with mouse P2X7 [2], the “Fold Cho P2X7/wt (phage ELISA)” value is 8 fold.

B14: P2X7PMP13G5 (VHH)
VHH: EVQLVESGGGLVQAGGSLRLSCAASDRTFGSSAMGWFRQAPGKDRDFVAAISWSGSSTHYADSVKGRFTISRDNAKNTMYLQMNSLKPADTAVYTCAASRRAYLPAKVGEYDFWGQGTQVTVSS
notes: family 18; on phage or c-myc/His6-tagged in assays
Take B14: the binding result with human P2X7 and with human P2X4 was “no binding (tested: 147 nM)” in each case. Further, the “Fold Cho P2X7/wt (phage ELISA)” value with mouse P2X7 [2] was determined as 35 fold.

B15: P2X7PMP13B8 (VHH)
VHH: EVQLVESGGGLVQPGGSLRLSCAASGLTLTYYNIGWFRQAPGKEREGVSCIDWTDGTTFYADSVKGRFTISTDNAKNTVYLHLNSLEPEDTAVYYCAAGWGRVMTVQHMCADRSLFTSWGQGTQVTVSS
notes: family 13; on phage or c-myc/His6-tagged in assays
In the case of B15, the binding result with human P2X7 and with human P2X4 was “no binding (tested: 147 nM)” each time. Further, in the experiment with mouse P2X7 [2], the “Fold Cho P2X7/wt (phage ELISA)” value stood at 24 fold.

B16: P2X7PMP4B4 (VHH)
VHH: EVQLVESGGGLVQAGGSLRLSCAASGRTVSDYGMGWFRQAPGKLREFVASINWSGIYTRYIDSVEGRFTISRDNTKNTLYLQMNNLKAEDTAVYYCAYFLGPNWYSNYGRPSSYDFYGQGTQVTVSS
notes: family 4; on phage or c-myc/His6-tagged in assays
Turning to B16, the “ATP IC50 by 2 uM NB” value with mouse P2X7 [1] came to 0.047 mM. The binding result with human P2X7 and with human P2X4 was “no binding (tested: 147 nM)” in each case. In addition, in the experiment with mouse P2X7 [2], the “Fold Cho P2X7/wt (phage ELISA)” value turned out to be 19 fold.

B17: P2X7PMP13G4 (VHH)
VHH: EVQLVESGGGLVQAGGSLRLSCAASDRTFGSSTMGWFRQPPGKNREFVATIAWSATTTHYADAVKGRFTVSRDNALNTVYLQMNSLKPEDTAVYYCAATLTWLGIHEYEYNTWGQGTQVTVSS
notes: family 21; on phage or c-myc/His6-tagged in assays
For B17, the binding result with human P2X7 and in the experiment with human P2X4 was “no binding (tested: 147 nM)” in each case. Besides, in the experiment with mouse P2X7 [2], the “Fold Cho P2X7/wt (phage ELISA)” value came to 56 fold.
